This note sets out measurements from PMC10115415, “RNA binding induces an allosteric switch in Cyp33 to repress MLL1-mediated transcription” (Science Advances, 2023).

What is called Kd is the equilibrium constant for the complex coming apart. Read a low Kd as higher affinity.

The labels stand for the following.
B1: Histone H3 lysine N6-trimethylated peptide (H3K4me3) (peptide, UniProt P68431 2-14, looked up)
peptide: ARTKQTARKSTGG
modifications: N6-trimethyl-lysine at 4
notes: histone H3 N-terminal tail, residues 1–13 (chain C of the ternary complex), Lys4 trimethylated; The text says that it has four positively charged residues and no negatively charged one; The limits 1–13 are those of chain C of the structure; also called H3K4me3 peptide; histone H3 tail
B2: MLL1 third plant homeodomain (PHD3) (domain or fragment, UniProt Q03164 1564-1627, looked up)
chain: AKGNFCPLCDKCYDDDDYESKMMQCGKCDRWVHSKCENLSDEMYEILSNLPESVAYTCVNCTER
notes: mixed-lineage leukemia 1 (MLL1), PHD3 domain, residues 1564 to 1627 (chain B 1564–1627); coordinates two zinc ions; The tag was removed with TEV protease on the chitin column; also called MLL1 PHD3; MLL1-PHD3; source: E. coli BL21-(DE3), codon-optimized construct, IMPACT system, purified (chitin beads, TEV cleavage, Superdex 75)

Holding throughout (settings): both partners purified
The target in assay [1] is B2. Kind of assay: ITC; conditions not given (table S1, fig. S2).
In assay [2] the target is Cyp33 RRM/MLL1 PHD3 complex (human | , UniProt Q9UNP9 1-114; Q03164 1564-1627). Kind of assay: ITC; conditions not given (table S1, fig. S2). In general terms: ITC needs no label: the signal is the heat of the interaction.
The next assay deals with T1, Cyp33 full-length (FL) (human, UniProt Q9UNP9 1-301).
T1 construct: cyclophilin 33 (Cyp33), 33 kDa, N-terminal RRM and C-terminal cyclophilin domain; details may stand in the Supplementary Materials and Methods; also called Cyp33 FL; cyclophilin 33
Kind of assay: NMR titration; Cyp33 FL:UAAUGU RNA complex mixed with MLL1 PHD3:H3K4me3 complex at 1:1:1:1 stoichiometry (or in large excess of Cyp33:RNA); signals of RNA, of the K4me3 methyl groups and of PHD3 residues followed.

T1 sequence (Q9UNP9 whole entry, the tested form may be a part): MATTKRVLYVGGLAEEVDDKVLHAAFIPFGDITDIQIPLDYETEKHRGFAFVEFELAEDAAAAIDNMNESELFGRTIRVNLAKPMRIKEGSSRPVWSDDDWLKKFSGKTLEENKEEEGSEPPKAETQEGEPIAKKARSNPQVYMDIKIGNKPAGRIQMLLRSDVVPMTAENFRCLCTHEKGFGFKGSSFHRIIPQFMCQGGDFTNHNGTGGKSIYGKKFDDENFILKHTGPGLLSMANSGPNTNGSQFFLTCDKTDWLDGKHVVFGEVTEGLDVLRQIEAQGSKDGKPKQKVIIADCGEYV
Sequence of Cyp33 RRM/MLL1 PHD3 complex (Q9UNP9 other isoform, or with tags, fused parts or gaps): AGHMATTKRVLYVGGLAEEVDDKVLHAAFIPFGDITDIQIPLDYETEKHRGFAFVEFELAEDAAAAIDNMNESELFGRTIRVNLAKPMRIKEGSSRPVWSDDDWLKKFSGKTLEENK

Take B1: the Kd turned out to be 51 µM in assay [1] and 70 µM in assay [2].

In the case of B2, the binding result with Cyp33 full-length (FL) is recorded as “binds”.
